Measurements as given in PMC4737396 (British Journal of Pharmacology, 2015).

Assays:
[1] = tested on: perfused pancreata from GIPR KO mice; conditions: 100 nM mouse (Pro3)GIP, 1 nM mouse GIP, 10 mM arginine, 7 mM glucose, N=3
[2] = tested on: perfused rat pancreas; conditions: 100 nM (Pro3)GIP, 1 nM GIP, 10 mM arginine, 7 mM glucose, radioimmunoassay, N=6-9
[3] = tested on: pigs; conditions: ref Deacon et al., 2006; cited from earlier work
[4] = target: GIP receptor; conditions: read-out: affinity (IC50); ref Deacon et al., 2006; cited from earlier work
[5] = target: Mouse GIP receptor (mouse) (UniProt Q0P543)
[6] = target: Human GIP receptor (human) (UniProt P48546)
[7] = target: Mouse GIP receptor (mouse) (UniProt Q0P543); assay: radioligand binding
[8] = target: Human GIP receptor (human) (UniProt P48546); assay: radioligand binding
[9] = target: Rat GIP receptor (rat) (UniProt P43219)
[10] = target: Rat GIP receptor (rat) (UniProt P43219); assay: radioligand binding
[11] = target: Rat GIP receptor (rat) (UniProt P43219); remark: listed apart in the source
[12] = target: T1, Rat GIP receptor (rat, UniProt P43219 19-455); assay: radioligand binding
T1 sequence: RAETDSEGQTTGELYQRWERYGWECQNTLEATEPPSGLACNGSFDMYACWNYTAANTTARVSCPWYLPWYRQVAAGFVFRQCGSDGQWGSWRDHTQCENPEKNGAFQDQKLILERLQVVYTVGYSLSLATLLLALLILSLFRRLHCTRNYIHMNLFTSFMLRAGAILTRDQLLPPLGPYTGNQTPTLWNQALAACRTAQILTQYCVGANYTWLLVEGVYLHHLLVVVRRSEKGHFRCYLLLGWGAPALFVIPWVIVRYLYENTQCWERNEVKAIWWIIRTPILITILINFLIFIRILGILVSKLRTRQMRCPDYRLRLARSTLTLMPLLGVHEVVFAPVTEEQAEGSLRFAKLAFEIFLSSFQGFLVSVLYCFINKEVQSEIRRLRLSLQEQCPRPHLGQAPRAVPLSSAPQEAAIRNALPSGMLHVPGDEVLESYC

[13] = target: T2, Human GIP receptor (human, UniProt P48546 22-466); assay: radioligand binding
T2 sequence: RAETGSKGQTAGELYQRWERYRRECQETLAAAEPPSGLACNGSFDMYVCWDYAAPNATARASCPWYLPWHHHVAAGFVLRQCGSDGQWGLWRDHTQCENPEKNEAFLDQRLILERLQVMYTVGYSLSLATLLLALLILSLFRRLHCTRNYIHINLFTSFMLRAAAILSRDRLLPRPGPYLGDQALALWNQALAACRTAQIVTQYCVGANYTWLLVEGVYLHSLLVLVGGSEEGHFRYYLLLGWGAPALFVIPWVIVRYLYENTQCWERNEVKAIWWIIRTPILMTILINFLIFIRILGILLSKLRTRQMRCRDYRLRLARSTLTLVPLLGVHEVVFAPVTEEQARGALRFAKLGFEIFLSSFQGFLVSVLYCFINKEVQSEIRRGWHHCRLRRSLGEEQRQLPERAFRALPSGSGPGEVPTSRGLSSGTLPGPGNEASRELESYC

[14] = target: T1, Rat GIP receptor; assay: cell-based or functional assay
[15] = target: T2, Human GIP receptor; assay: cell-based or functional assay
[16] = target: T3, Mouse GIP receptor (mouse, UniProt Q0P543 19-460); assay: cell-based or functional assay
T3 sequence: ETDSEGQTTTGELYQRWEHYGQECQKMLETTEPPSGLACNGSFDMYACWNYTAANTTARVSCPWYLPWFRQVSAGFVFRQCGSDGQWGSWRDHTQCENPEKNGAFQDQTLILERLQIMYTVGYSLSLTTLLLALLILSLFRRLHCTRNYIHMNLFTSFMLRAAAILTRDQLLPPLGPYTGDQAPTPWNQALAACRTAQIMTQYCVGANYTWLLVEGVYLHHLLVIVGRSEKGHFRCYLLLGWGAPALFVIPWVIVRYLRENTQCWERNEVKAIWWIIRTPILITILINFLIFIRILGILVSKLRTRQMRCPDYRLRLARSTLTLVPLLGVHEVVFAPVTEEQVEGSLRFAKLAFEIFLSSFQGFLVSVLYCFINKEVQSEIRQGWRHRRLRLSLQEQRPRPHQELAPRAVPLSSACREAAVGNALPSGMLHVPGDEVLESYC

[17] = target: T3, Mouse GIP receptor; assay: radioligand binding

With `N=C(N)NCCC[C@H](N)C(=O)O` [arginine] the glucagon secretion [1] was “induced secretion of the respective hormones”, the insulin secretion [1] was “induced secretion of the respective hormones” and the somatostatin secretion [1] was “induced secretion of the respective hormones”. For the same molecule, the glucagon secretion [2] was “induced secretion of the respective hormones”, the insulin secretion [2] was “induced secretion of the respective hormones” and the somatostatin secretion [2] was “induced secretion of the respective hormones”.

In the case of “GIP(3–42): naturally occurring GIP metabolite (EGTFISDYSIAMDKIHQQDFVNWLLAQKGKKNDWKHNITQ; Gastric inhibitory polypeptide; UniProt P09681 54-93, looked up, fragment)”, the “antagonistic effect in vivo” value [3] is given as “no antagonistic effect could be demonstrated” and the IC50 [4] is given as 22 nM.

Human (Pro3)GIP (peptide) showed an EC50 of cAMP accumulation in transfected COS-7 cells [5] of 92 nM, an Emax of cAMP accumulation in transfected COS-7 cells [5] of 71 and an EC50 of cAMP accumulation in transfected COS-7 cells [6] of 4.7 nM. For the same molecule, the logIC50 [7] was -7.4 and the logIC50 [8] was -8.

Molecule “Mouse (Pro3)GIP (from UniProt P48756 44-85) (peptide)” has an EC50 of cAMP accumulation in transfected COS-7 cells [5] of 29 nM, an Emax of cAMP accumulation in transfected COS-7 cells [5] of 59 and an Emax of cAMP accumulation in transfected COS-7 cells [6] of 67. It also gave an EC50 of cAMP accumulation in transfected COS-7 cells [9] of 15 nM, an Emax of cAMP accumulation in transfected COS-7 cells [9] of 61 and a logIC50 [7] of -8.3. For the same molecule, the logIC50 [8] was -8.1 and the logIC50 [10] was -8.1.

“Rat (Pro3)GIP (from UniProt Q06145 44-85) (peptide)” showed an EC50 of cAMP accumulation in transfected COS-7 cells [5] of 38 nM, an Emax of cAMP accumulation in transfected COS-7 cells [5] of 57 and an Emax of cAMP accumulation in transfected COS-7 cells [6] of 73. For the same molecule, the EC50 of cAMP accumulation in transfected COS-7 cells [9] was 13 nM, the Emax of cAMP accumulation in transfected COS-7 cells [9] was 64 and the logIC50 [7] was -8.1. It also gave an Emax of cAMP accumulation, normalised to rat GIP on the rat receptor (Figure 2B) [11] of 50%.

YAEGTFISDYSIAMDKIRQQDFVNWLLAQRGKKSDWKHNITQ (ligand) [Mouse GIP (glucose-dependent insulinotropic polypeptide, GIP(1-42))] showed a logIC50 [12] of -8.9, a Ki [13] of 2 nM and a logIC50 [13] of -8.7. The “Emax of cAMP accumulation in transfected COS-7 cells” value (“Emax … in transfected COS-7 cells” for short) [14] was 120, the “Emax … in transfected COS-7 cells” value [15] was 99 and the “Emax … in transfected COS-7 cells” value [16] was 156.

In the case of YAEGTFISDYSIAMDKIHQQDFVNWLLAQKGKKNDWKHNITQ (ligand) [Human GIP (glucose-dependent insulinotropic polypeptide, GIP(1-42))], the “Emax … in transfected COS-7 cells” value [14] is reported as 100.

For YAEGTFISDYSIAMDKIRQQDFVNWLLAQKGKKNDWKHNLTQ (ligand) [Rat GIP (glucose-dependent insulinotropic polypeptide, GIP(1-42))], the logIC50 [13] was -8.9, the logIC50 [17] was -9.6 and the “Emax … in transfected COS-7 cells” value [14] was 117. For the same molecule, the “Emax … in transfected COS-7 cells” value [15] was 113 and the “Emax … in transfected COS-7 cells” value [16] was 144.
